# Laboratory results taken from the supplement of paper PMC9732359.
# ± gives the uncertainty stated by the source.
# Assay: protein stability index of a GFP-peptide fusion (yeast GPS) (PSI 1-4); higher = more stable; sorted into four equal gates, so the index is relative within each strain
# Settings: pdr5∆
# Summary of the method: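 The protein stability index of a peptide was calculated by multiplying its read frequency in each gate by that gate's number and adding the products. The peptides were tiled 17-residue stretches of yeast proteins, fused downstream of GFP on a Cherry-expressing plasmid and carried in yeast as a pooled library. Mid-log cultures in leucine-free medium were sorted into four equal gates by GFP/Cherry ratio, and each gate's plasmids were PCR-amplified and Illumina-sequenced.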
row,Sequence,protein stability index
1,MIQKVMEYLKSSKSLDL [RPN5],1.55 ± 0.039
2,MKDKEINIQKYNNNTIR [CSI1],2.4 ± 0.15
3,MKEDGLSFVDIVLSKAA [SIR4],2.8 ± 0.07
4,MKHLGRSEGNPVIGVFQ [FAS2],2.78 ± 0.08
5,MKLKLMIVYYKDAISFI [YCS4],1.49 ± 0.049
6,MKLVPSIPPATIETFNE [RPB5],2.41 ± 0.06
7,MKMDKSPTESYSDIGGL [RPT2],3.4 ± 0.096
8,MKPEVEQELAHILLTEL [FAS2],2.988 ± 0.028
9,MKPSDNISTNTNIHEPQ [SSN2],3.08 ± 0.051
10,MKVEIDSFSGAKIYPGR [RPL24A],3.45 ± 0.12
11,MKWDFAKDIKGYGTQKI [PRE4],1.85 ± 0.057
12,MKWSAIPFQTLYRSIES [YJL039C/NUP192],1.91 ± 0.058
13,MKYIQTEQQIEVPEGVT [RPL9A],2.75 ± 0.082
14,MKYLAAYLLLNAAGNTP [RPP2A],2.05 ± 0.033
15,MKYLAAYLLLVQGGNAA [RPP2B],1.78 ± 0.038
16,MLASQANGGSTIISPHK [DSN1],3.43 ± 0.14
17,MLCTADTPEGEACGLVK [RET1],1.77 ± 0.14
18,MLLEEQLEYKRGEIREI [MED7],2.92 ± 0.28
19,MLLGTDLCSLKPYVDRF [DIS3],2.68 ± 0.066
20,MLLLNDSVENSSNILED [SRB8],2.57 ± 0.078
21,MLMSKIGDVDGLIVNPV [POP5],2.58 ± 0.056
22,MLSILEIFKKGYIKNNK [POP6],2.84 ± 0.091
23,MLWNLAAKKAMYTLSAQ [ASC1],2.45 ± 0.062
24,MMENYQNISPVYSVDPL [PRP8],1.88 ± 0.058
25,MMMQQQLKNVQLDSYLV [MED2],2.45 ± 0.061
26,MNGNTNANTVFAGSNNQ [YOR098C/NUP1],3.27 ± 0.12

row,Sequence,protein stability index
1,MNGRSLTYAQQQLNKQR [SNF6],3.36 ± 0.14
2,MNKDQAEKYQERSLRQK [SNM1],3.25 ± 0.089
3,MPPKKSWRNITNLSGGE [SMC4],2.85 ± 0.14
4,MPPKQQLSKAAKAAAAL [RPS25A],1.87 ± 0.05
5,MPQSGTGVSVEAVDDVF [RPN11],3.12 ± 0.11
6,MPRAPRTYSKTYSTPKR [RPS9A],2.45 ± 0.069
7,MQANTNALRRNLLKDEG [SSN3],3.1 ± 0.25
8,MQDPDGIDINTKIFNSV [YCG1],3.04 ± 0.12
9,MQRHVKVDGKVRTDTTY [RPS4A],3.28 ± 0.083
10,MRILSNDITNLQLSKTP [SRB8],2.71 ± 0.08
11,MRSTSILTEHLGYPPIS [MTW1],2.74 ± 0.065
12,MSDEDNNYDDFMLSDDE [RRI2],3.58 ± 0.23
13,MSDPSSINGGIVVAMTG [PUP3],2.39 ± 0.21
14,MSGAAAASAAGYDRHIT [SCL1],2.87 ± 0.16
15,MSHRKYEAPRHGHLGFL [RPL3],3.15 ± 0.19
16,MSLPATFDLTPEDAQLL [RPS0A],2.83 ± 0.12
17,MSLSNKTVKELRQLLKE [RRI1],1.42 ± 0.083
18,MSLSVAEKSYLYDSLAS [RRP42],1.64 ± 0.18
19,MSREGFQIPTNLDAAAA [RPC10],1.08 ± 0.082
20,MSRPQVTVHSLTGEATA [RPL4A],2.28 ± 0.07
21,MSSAAEKKPASKAPAEK [HTB2],3.3 ± 0.081
22,MSSTTPKLESVKWQYDP [SNF12],3.25 ± 0.066
23,MSVQDTKAVEFSMGHIR [MED4],3.37 ± 0.093
24,MTLKEMYQMITMGGNAE [SMC4],2.41 ± 0.056
25,MTMLTPNYLHLVSSYLN [YML103C/NUP188],1.66 ± 0.035
26,MTMQVAVPRDELGRSNY [FAS1],3 ± 0.11

row,Sequence,protein stability index
1,MTTFRFCRDCNNMLYPR [RPB9],3.14 ± 0.11
2,MTTSAVSPTVGKLFSDI [YIL149C/MLP2],3.33 ± 0.064
3,MTTWRKLYTKELSVTGS [YMR129W/POM152],1.34 ± 0.072
4,MVDESDKKQQTIDEQSQ [RPN1],3.25 ± 0.16
5,MVKNVKPSSPPDVKSLV [SIR4],3.12 ± 0.063
6,MVLRKQKRYTVKKALAK [RPL14A],2.13 ± 0.1
7,MVLRNVMEYDVKFYEIF [SRB8],2 ± 0.099
8,MVRLKSRYILFEIIFPP [POP5],1.42 ± 0.054
9,MVTSNVVLVSGEGERFT [SKP1],2.56 ± 0.086
10,MYTRLCICSGMLFEMDG [SIN4],1.41 ± 0.038
11,NAAVAGVANTDTAGEES [SWI3],3.27 ± 0.062
12,NAEAKGLDATKLYVSHI [RPL17A],3.13 ± 0.092
13,NAIIEANLGKYGILSID [RPL7A],2.97 ± 0.14
14,NAKDIQIPVYDTFDGSD [FAS1],2.56 ± 0.07
15,NALEHKYFTESDIPVSE [SSN3],2.75 ± 0.11
16,NANIFSSVKCFGPIKVE [FAS1],1.63 ± 0.046
17,NANRVFRTRFQDGTSVV [SMC2],1.29 ± 0.1
18,NARKVVGASVVVVKNWG [RPS12],2.69 ± 0.13
19,NATHDEDEFIVQHDQIL [SWP82],3.13 ± 0.032
20,NATVNLAMEAILNELEV [YJR042W/NUP85],3 ± 0.11
21,NAVSFDTTFSDFKEVED [SRB4],2.53 ± 0.039
22,NCFFDVIVPQIVLDEVR [DIS3],1.55 ± 0.17
23,NDFTTKLINIKKFDISN [MED1],1.47 ± 0.096
24,NDICSVENYETSSAFFY [SIR4],2.88 ± 0.051
25,NDLEVGVATKDKFFTLS [SCL1],3.33 ± 0.067
26,NDLQSETKTKKEKIKGL [SMC4],3.25 ± 0.25

row,Sequence,protein stability index
1,NDNEDDDEEYDYNDVEV [BRR2],3.22 ± 0.079
2,NDNIGANRSRFNNEAPP [SMB1],3.02 ± 0.047
3,NDPEYMDTSDDAFVATA [DLS1],3.49 ± 0.16
4,NDQALIKVLLRQNRRPE [RET1],2.45 ± 0.094
5,NDRESVLTNIEVYRTSL [SMC3],3.21 ± 0.15
6,NDSFKGLITNKMWFDVQ [PRP8],2.99 ± 0.085
7,NDVTRRTVKNILVSVLP [CSL4],3.12 ± 0.1
8,NEDDALIYGISDEERDD [AAR2],3.53 ± 0.13
9,NEDMVRRANFYKENEAM [SNF12],3.48 ± 0.087
10,NEDSKAFHTAVLRLNAI [NUT1],3.34 ± 0.055
11,NEGVPSPMLSISNLTQE [FAS1],2.94 ± 0.062
12,NEIEGKNEETPQNEKPP [RPC25],3.14 ± 0.15
13,NEIKQLGSDSSDGHNSE [SRB4],2.8 ± 0.084
14,NEISRNGTMINEVIDKL [PCI8],2.51 ± 0.066
15,NELMRWPIVQKTYEPVL [RPN5],2.39 ± 0.057
16,NEQAARAANQGALPPDL [CYT1],3.32 ± 0.049
17,NERELNVFARLSRLLSL [RPC82],2.07 ± 0.11
18,NESEKDQWLEEYKKHFP [UBP6],3.6 ± 0.19
19,NETSEQLVPIRLEFDQD [SNF5],3.12 ± 0.099
20,NEYPVADAVTKDLKLRR [REC8],3.23 ± 0.095
21,NFGNNGAGGLNPFTSAT [YOR098C/NUP1],3.21 ± 0.09
22,NFKSYRGVTKVGFGESN [SMC1],2.89 ± 0.13
23,NFNSVNDANITSNKEGF [SSN2],3.25 ± 0.084
